Target: FLAG-WRN (wild type) (UniProt Q14191 1-1432)
Test: EMSA; 2 mM ATPgS, 5 mM MgCl2; affinity similar to the K577M/E84A mutant; Kd is only in Supp Fig 1e, value not in material; 35 mM Tris-HCl pH 7.5, 20 mM KCl, 5 mM MgCl2, 0.1 mg/ml BSA, 2 mM DTT, 5% glycerol, 2 mM ATPgS, 2 nM DNA, 15 min at RT; 5% 1x TBE native PAGE at 4 C
Details: protein: recombinant; tags: N-terminal FLAG (6xHis removed with TEV); label: 5' 32P on oligo B (as described for the CF preparation); four-strand regressed fork: AB partial duplex annealed to CD partial duplex

FLAG-WRN (wild type), sequence (Q14191 whole entry): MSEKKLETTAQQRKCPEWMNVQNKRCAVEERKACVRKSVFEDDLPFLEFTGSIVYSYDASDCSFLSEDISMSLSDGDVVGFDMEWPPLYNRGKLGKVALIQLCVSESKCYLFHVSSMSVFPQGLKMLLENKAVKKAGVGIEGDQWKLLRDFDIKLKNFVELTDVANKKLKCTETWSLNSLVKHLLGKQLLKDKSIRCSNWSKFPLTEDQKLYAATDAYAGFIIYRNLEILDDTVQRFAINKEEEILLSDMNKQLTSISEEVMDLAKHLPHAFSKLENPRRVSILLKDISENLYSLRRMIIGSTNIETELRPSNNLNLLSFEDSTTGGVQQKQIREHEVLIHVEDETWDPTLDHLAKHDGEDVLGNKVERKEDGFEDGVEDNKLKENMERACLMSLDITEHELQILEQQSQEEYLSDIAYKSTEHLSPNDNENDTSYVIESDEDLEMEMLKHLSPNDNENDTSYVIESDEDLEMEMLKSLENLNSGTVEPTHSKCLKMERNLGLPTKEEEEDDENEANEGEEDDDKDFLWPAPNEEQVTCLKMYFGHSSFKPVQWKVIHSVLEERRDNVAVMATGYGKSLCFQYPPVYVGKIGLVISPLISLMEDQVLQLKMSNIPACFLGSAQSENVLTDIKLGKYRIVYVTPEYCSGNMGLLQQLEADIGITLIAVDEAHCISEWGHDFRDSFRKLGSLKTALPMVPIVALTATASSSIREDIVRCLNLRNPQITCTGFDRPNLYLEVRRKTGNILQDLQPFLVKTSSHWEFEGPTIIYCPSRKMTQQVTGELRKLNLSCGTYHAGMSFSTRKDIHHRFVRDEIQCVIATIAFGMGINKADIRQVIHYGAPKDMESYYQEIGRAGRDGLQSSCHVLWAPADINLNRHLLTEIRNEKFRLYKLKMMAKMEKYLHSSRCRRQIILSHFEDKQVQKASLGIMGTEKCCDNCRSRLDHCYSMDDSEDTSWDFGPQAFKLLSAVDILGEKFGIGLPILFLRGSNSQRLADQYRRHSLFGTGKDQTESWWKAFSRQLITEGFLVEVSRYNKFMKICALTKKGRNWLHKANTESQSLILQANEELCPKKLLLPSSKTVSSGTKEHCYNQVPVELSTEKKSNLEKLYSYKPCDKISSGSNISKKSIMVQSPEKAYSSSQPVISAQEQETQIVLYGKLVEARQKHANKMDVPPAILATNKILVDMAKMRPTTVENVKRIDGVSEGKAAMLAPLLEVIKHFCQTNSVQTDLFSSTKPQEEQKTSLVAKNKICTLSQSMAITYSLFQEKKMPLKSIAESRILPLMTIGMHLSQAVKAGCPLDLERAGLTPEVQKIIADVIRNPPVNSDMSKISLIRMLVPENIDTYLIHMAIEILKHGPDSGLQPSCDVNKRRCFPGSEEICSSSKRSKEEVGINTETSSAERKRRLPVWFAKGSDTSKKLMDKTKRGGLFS

B1: chicken-foot (CF) reversed fork substrate, oligos A+B+C+D (structured_DNA)
DNA 1: CTTTAGCTGCATATTTACAACATGTTGACCTTCAGTACAATCTGCTCTGATGCCGCATAGTGTCATGCCAGAGCTTTGTAC
DNA 2: CGGGTGTCGGGGCGCATGACACTATGCGGCATCAGAGCAGATTGTACTGAAGGTCAACATGTTGTAAATATGCAGCTAAAG
DNA 3: GTACAAAGCTCTGGCATGATACTATGCGGCATCAGAGCAGATT
DNA 4: TCAGTACAATCTGCTCTGATGCCGCATAGTATCATGCGCCCCGACACCCG
modifications: iMe-isodC at position 38 of oligo A (written as C)
- binding result: binds
